US11866760B2, “Microorganisms for the production of insect pheromones and related compounds” (Provivi, Inc., priority 2017, dated 2024)
Changes are numbered by the printed parent chain. In names and notes the source's numbering stands.

Columns and labels:
ALE1p (=LCA1p) = biological target: T1, ALE1p (=LCA1p) (Saccharomyces cerevisiae, UniProt Q08548); conditions: Chen Q et al. 2007; cited from earlier work
T1 sequence (Q08548 1-619): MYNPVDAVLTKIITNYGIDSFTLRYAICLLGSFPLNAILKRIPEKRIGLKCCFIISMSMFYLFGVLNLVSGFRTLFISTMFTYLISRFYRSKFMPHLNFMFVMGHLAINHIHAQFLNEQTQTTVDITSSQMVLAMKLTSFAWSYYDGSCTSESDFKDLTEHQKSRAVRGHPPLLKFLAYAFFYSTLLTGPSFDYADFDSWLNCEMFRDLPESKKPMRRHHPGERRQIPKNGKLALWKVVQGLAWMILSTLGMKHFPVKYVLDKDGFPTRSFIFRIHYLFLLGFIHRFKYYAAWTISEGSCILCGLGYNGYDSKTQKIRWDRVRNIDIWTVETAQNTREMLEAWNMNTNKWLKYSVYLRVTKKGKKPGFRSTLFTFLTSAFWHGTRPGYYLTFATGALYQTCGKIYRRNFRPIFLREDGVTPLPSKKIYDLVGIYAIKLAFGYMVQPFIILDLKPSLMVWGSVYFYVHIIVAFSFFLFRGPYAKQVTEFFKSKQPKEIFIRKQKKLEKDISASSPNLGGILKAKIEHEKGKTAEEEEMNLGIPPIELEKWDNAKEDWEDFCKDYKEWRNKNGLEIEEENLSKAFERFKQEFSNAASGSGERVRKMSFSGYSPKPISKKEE

methyl palmitate [1] = test: HaFAR mutant library cultivation in 24 well plates in Y. lipolytica SPV603; type: cell-based, Yarrowia lipolytica; conditions: second FAR copy in SPV603, 24 well plates
Method: Four individual clones of positive integrants were tested. Cultivation was performed in 24 well plates. Briefly, 2 mL YPD was inoculated from patches of individual clones and incubated for 24 h at 28° C., 1000 rpm. After 24 h OD600 was measured and the cells were centrifuged at 1000 rpm (Table 23). The cell pellets were resuspended in 1 mL S2 media and 10 g/L methyl palmitate was added. The cells were incubated for 18 h at 28° C., 1000 rpm. Cultivations were stored at −20° C. until analyzed. Extraction and analysis was performed according to previously established standard protocols using GC-FID.
In a first round four individual isolate from each transformation was tested. Cultivation was performed in 24 well plates. 2 mL YPD was inoculated from patches of individual clones and incubated for 24 h at 28° C., 1000 rpm. After 24 h OD600 was measured and the cells were centrifuged at 1000 rpm. The cell pellets were resuspended in 1 mL S2 media and 10 g/L methyl palmitate was added. The cells were incubated for 24 h at 28° C., 1000 rpm. Cultivations were stored at −20° C. until analyzed. Next, four clones of the best performing positive integrant were tested. Cultivation was performed in 24 well plates. 2 mL YPD was inoculated from patches of individual clones and incubated for ˜28 h at 28° C., 1000 rpm. After 28 h OD600 was measured and the cells were centrifuged at 1000 rpm. The cell pellets were resuspended in 1 mL S2 media and 10 g/L methyl palmitate was added. The cells were incubated for 18 h at 28° C., 1000 rpm. Cultivations were stored at −20° C. until analyzed.
Cell pellets were resuspended with 500 μL 5% NaOH (in methanol) then heated for 1 hour at 85° C. Samples were cooled down and then acidified by adding 400 μL 5N HCl. Next, 500 μL chloroform (containing 1 mM C17:0 heptadecanoate internal standard) were added to samples. Samples were mixed vigorously then spun down for 2 minutes at 13,000 RPM using a table top centrifuge. 450 μL chloroform were transferred to a new vial then evaporated at 85° C. for ˜15 minutes. Samples were then resuspended in 50 μL BSTFA (and were now ready for GC analysis). After analysis of the fatty alcohols samples were diluted ˜1:10 and rerun on the GC to improve peak separation of the fatty acid peaks.
All quantifications were based on the concentration of the internal standard. The concentration of the internal standard C17ME is 1 mM. The final concentration of fatty alcohols as well as fatty acids were calculated based on the effective carbon number compared to the internal standard.

methyl palmitate [2] = test: HaFAR mutant library cultivation in shake flasks; type: cell-based, Yarrowia lipolytica; conditions: shake flask experiments, 10 g/L methyl palmitate
Method: In a first step a shake flask experiment of the respective strains was performed to analyze fatty alcohol and fatty acid formation over time. The best performing clone of the strains expressing HaFAR, HaFAR S195A and HaFAR S418A were tested. 10 mL YPD was inoculated from patches of individual clones and incubated for 24 h at 28° C., 250 rpm in a 125 mL shake flask. Next, 25 mL YPD were inoculated with 5 mL starter culture in 500 mL shake flasks and incubated for 24 h at 28° C., 250 rpm. The cells were harvested and the pellets were resuspended in 15 mL S2 media and 10 g/L methyl palmitate was added. OD600 was measured and subsequently methyl palmitate was added. […] 4×0.5 mL samples were taken every 24 h and stored at −20° C. until analyzed according to a previously established standard protocol (FIG. 47 and FIG. 48). To improve sampling and reduce the standard deviation, samples were transferred directly into GC crimp vials and stored until analyzed.
Thus, sampling was reduced to 20 h. In previous 24 well plate bioconversion experiments the measured biomass was ˜2× higher compared to the shake flask experiment. […] The cells were harvested and the pellets were resuspended in 10 mL S2 media and 10 g/L, OD600 was measured and subsequently methyl palmitate was added. […] 4×0.5 mL samples were taken and analyzed according to a previously established standard protocol (FIG. 49). […]

[Zn+2] [Zn2+]
inhibitory concentration (ALE1p (=LCA1p)): above 0.1 mM

B1: HaFAR (S418A) (protein)
chain: MVVLTSKETKPSVAEFYAGKSVFITGGTGFLGKVFIEKLLYSCPDIENIYMLIREKKGLSVSERIKQFLDDPLFTRLKDKRPADLEKIVLIPGDITAPDLGINSENEKMLIEKVSVIIHSAATVKFNEPLPTAWKINVEGTRMMLALSRRMKRIEVFIHISTAYTNTNREVVDEILYPAPADIDQVHQYVKDGISEEDTEKILNGRPNTYTFTKALTEHLVAENQAYVPTIIVRPSVVAAIKDEPLKGWLGNWFGATGLTVFTAKGLNRVIYGHSSYIVDLIPVDYVANLVIAAGAKSSKSTELKVYNCCSSSCNPVTIGTLMSMFADDAIKQKSYAMPLPGWYIFTKYKWLVLLLTFLFQVIPAYVTDLSRHLIGKSPRYIKLQSLVNQTRSSIDFFTNHSWVMKADRVRELYASLAPADKYLFPCDPTDINWTHYIQDYCWGVRHFLEKKSYE
Z11-16OH titers compared to the HaFAR double copy strain (methyl palmitate [1]): distinct increase of Z11-16OH titers
Z11-16OH titer (methyl palmitate [2]): ~80 mg/L

B2: HaFAR (S195A) (protein)
chain: B1 chain with S195A, A418S
Z11-16OH titers compared to the HaFAR double copy strain (methyl palmitate [1]): distinct increase of Z11-16OH titers
Z11-16OH titer (methyl palmitate [2]): ~120 mg/L
